T1: sortilin (Homo sapiens, UniProt Q99523)
T1 construct: expressed in transfected cells; host or cells: HEK 293 cells (proBDNF) / 293T cells (proNGF)
T1 sequence (Q99523 78-831): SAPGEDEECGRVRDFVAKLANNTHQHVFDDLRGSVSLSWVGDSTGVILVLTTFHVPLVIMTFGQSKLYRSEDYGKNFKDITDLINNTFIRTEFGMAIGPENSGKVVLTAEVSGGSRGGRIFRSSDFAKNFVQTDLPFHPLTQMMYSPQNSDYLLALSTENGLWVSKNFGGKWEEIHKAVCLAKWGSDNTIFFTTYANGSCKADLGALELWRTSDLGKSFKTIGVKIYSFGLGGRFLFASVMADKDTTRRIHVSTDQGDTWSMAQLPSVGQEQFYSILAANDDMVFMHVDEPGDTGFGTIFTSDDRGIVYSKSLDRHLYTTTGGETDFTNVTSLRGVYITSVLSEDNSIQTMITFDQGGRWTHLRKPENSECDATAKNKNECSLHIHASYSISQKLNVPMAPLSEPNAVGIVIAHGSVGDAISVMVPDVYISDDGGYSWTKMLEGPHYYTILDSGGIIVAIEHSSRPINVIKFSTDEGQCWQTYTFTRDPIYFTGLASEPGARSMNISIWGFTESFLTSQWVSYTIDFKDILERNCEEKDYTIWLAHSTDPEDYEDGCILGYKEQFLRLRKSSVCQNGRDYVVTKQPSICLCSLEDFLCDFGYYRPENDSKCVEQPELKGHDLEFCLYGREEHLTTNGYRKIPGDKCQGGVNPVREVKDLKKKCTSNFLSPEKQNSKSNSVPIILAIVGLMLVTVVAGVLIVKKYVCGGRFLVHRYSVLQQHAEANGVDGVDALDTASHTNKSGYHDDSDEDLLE


What was measured:
[1] = target: T1, sortilin; experiment: Co-immunoprecipitation of proNT with sortilin in transfected 293 cells; format: binding; conditions: 293 cells co-transfected with proNT and myc-sortilin; IP-Western blot
Description: FIG. 2A-G. ProNTs induce growth cone collapse. (A, B) DIV3 hippocampal neurons transfected with LifeAct-RFP were imaged by time-lapse microscopy before (top panel) and starting approximately 2 min after (bottom panel) treatment with proBDNF (A) or proNGF (B). Actin dynamics stalled upon proNT treatment and subsequently the growth cone collapsed. Time is indicated in (min:sec). Scale bars, 10 μm. (C, D) DIV3 hippocampal cultures were fixed and stained for p75^NTR (C) and SorCS2 (D). Arrows highlight growth cones. Scale bars, 20 μm. (E) Brain sections from 6-week old C57/BL6 mice were stained for SorCS2. DG, dentate gyrus. Arrows highlight expression in dentate granule dendrites. Scale bar, 200 μm. (F) Both sortilin and SorCS2 interact with proBDNF. HEK 293 cells were transfected with proBDNF-HA and myc-sortilin or mycSorCS2, lysates were immunoprecipitated with anti-HA agarose and analyzed by Western blot with indicated antibodies. (G) IP-WB from 293T cells showing interactions between proNGF and sortilin and SorCS2.
The LifeAct sequence (RIEDL, J. et al., Nat Methods 5:605-607 (2008)) was cloned into the pEGFP-N1 backbone (Clontech) using the BglII and BamHI restriction sites. Trio constructs were described previously (FERRARO, F. et al., Mol Biol Cell 18:4813-4825 (2007)), human sortilin cDNA or human SorCS2 cDNA was subcloned into the pcDNA3.1 hygro expression vector (Invitrogen). […]

[2] = system: Rac; experiment: Rac activity assay (GST-Pak-CRIB pull-down of activated Rac); format: cell-based, mouse; conditions: mouse E15 DIV2 cortical neurons; 20 min; proBDNF with K252a
Description: Rac activity assays were performed as described previously (NEUBRAND, V. E. et al., Journal of Cell Science 123:2111-2123 (2010)). […] Cells were lysed in lysis buffer supplemented with 10 mM MgCl, lysates were cleared by centrifugation at 9000 g for 1 min, and cleared lysates were incubated with GST or GST-Pak-CRIB beads for 30 min at 4° C. Beads were washed and isolated active Rac was analyzed by Western blot. As a control, extra lysates were incubated with 0.1 mM GDP or 0.1 mM GTPγS for 30 min at room temperature before incubation with GST-Pak-CRIB beads. Western blots were analyzed by densitometry using ImageJ software, and isolated active Rac was normalized to the input.
GST and GST-Pak-CRIB proteins were expressed in E. coli BL21DE3 cells at 25° C. for 3 hours. Bacteria were disrupted by incubation with PBS supplemented with lysozyme on ice for 30 min and subsequent addition of 1 mM MgCl2, 0.1% TritonX-100 and 0.1 mg/ml DNAse for an additional 30 min. Bacterial lysates were cleared by centrifugation for 5 min at 3000 g and cleared lysates were incubated with glutathione sepharose. Beads were washed and the purity of the recombinant proteins was analyzed by Coomassie blue staining. 20 μg of sepharose coupled purified protein was used per reaction.

[3] = target: T2, p75^NTR/SorCS2 and Trio (Homo sapiens, UniProt P08138+Q96PQ0); experiment: Co-immunoprecipitation of Trio with p75NTR/SorCS2 after proNT treatment of HT1080 cells; format: cell-based; conditions: HT1080 cells expressing p75NTR and SorCS2; 20 min incubation; IP anti-p75NTR, Western blot
T2 construct: HA; expressed in transfected cells; host or cells: HT-1080 cells
T2 sequence (P08138 29-427): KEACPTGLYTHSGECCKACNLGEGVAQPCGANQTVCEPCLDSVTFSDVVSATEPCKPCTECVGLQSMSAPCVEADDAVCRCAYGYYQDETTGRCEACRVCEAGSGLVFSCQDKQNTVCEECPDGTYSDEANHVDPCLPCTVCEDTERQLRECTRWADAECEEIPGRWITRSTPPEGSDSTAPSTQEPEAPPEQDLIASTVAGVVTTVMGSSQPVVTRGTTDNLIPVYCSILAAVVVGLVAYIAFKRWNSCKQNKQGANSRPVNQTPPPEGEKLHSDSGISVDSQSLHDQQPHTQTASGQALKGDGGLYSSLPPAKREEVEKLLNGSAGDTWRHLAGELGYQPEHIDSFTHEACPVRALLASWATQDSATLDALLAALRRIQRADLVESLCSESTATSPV
T2 sequence (Q96PQ0 70-1159 limits assumed): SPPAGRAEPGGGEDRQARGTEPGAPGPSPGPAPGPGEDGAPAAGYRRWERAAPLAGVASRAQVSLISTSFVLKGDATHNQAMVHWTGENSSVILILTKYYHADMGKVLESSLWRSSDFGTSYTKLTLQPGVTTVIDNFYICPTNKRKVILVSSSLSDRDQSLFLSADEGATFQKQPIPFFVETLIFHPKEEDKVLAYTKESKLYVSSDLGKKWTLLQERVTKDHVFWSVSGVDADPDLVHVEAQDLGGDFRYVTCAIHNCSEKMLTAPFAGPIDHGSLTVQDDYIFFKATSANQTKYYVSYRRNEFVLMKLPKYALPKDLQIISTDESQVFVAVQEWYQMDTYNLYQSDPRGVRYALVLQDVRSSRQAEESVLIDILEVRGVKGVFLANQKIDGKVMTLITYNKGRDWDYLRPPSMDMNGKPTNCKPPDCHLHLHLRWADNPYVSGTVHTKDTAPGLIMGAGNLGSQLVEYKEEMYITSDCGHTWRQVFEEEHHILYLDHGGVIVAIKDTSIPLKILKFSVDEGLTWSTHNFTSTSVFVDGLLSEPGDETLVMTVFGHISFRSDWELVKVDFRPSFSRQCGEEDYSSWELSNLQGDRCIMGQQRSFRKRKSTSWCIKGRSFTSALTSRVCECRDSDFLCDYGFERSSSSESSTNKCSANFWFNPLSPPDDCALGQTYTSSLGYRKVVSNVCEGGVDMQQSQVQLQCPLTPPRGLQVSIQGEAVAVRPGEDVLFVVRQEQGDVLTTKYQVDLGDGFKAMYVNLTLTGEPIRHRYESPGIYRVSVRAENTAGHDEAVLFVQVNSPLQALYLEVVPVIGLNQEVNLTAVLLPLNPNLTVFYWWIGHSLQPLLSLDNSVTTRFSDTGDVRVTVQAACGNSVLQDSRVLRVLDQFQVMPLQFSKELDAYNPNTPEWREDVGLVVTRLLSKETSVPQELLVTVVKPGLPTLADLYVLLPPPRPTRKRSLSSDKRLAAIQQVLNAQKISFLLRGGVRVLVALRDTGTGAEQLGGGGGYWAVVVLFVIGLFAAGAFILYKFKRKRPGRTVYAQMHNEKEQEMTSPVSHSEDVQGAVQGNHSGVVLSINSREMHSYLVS
Description: HT-1080 cells were transfected with HA-p75^NTR and myc-SorCS2. 24-48 hours later, cells were treated with 25 ng/ml proNGF for 20 min where indicated. Cells were lysed with lysis buffer (50 mM Tris-HCl pH 8.0, 140 mM NaCl, 2 mM EDTA, 1% NP40, 10% glycerol) supplemented with protease inhibitors and complexes were immunoprecipitated using anti-HA agarose. To map the Trio domain required for the interaction with p75^NTR, 293T cells were transfected with HA-p75^NTR and constructs of the individual Trio domains. After 24 hours, cells were lysed as described above, and complexes were immunoprecipitated using anti-HA agarose or anti-Myc agarose as indicated.

interaction between p75NTR/SorCS2 and Trio [3]	Molecule	interaction with sortilin (co-immunoprecipitation) [1]	Rac activity after proNT exposure [2]
markedly reduced the interaction	proNGF: proneurotrophin precursor of nerve growth factor, produced in Sf9 cells and purified	co-immunoprecipitated with both sortilin and SorCS2	significant decrease in Rac activity
markedly reduced the interaction	proBDNF: murine proBDNF collected from supernatants of transfected 293 cells (protein) APMKEVNVHGQGNLAYPGVRTHGTLESVNGPRAGSRGLTTTSLADTFEHVIEELLDEDQKVRPNEENHKDADLYTSRVMLSSQVPLEPPLLFLLEEYKNYLDAANMSMRVRRHSDPARRGELSVCDSISEWVTAADKKTAVDMSGGTVTVLEKVPVSKGQLKQYFYETKCNPMGYTKEGCRGIDKRHWNSQCRTTQSYVRALTMDSKKRIGWRFIRIDTSCVCTLTIKRGR	interact	significant decrease in Rac activity

Source: patent US20130336988A1, “METHODS FOR TREATING EARLY STAGE OR MILD NEUROLOGICAL DISORDERS” (NEW YORK UNIVERSITY, priority 2010, published 2013)
